Publication PMC3419727, “Identifying the Hotspots on the Top Faces of WD40-Repeat Proteins from Their Primary Sequences by β-Bulges and DHSW Tetrads” (PLoS ONE, 2012)

B1: S. japonicus Tup11 WD40 domain (amino acids 301–630), wild type [S. japonicus] / C-terminal region of S. pombe Fep1 (amino acids 319–564) [S. pombe] (parent complex)
chain 1: ERTKESGQDWYAVYNEKMPKRMSIGLVHTLEHKSVVCCVRFSADGKYLATGCNRAAEIFDVQTGQKLATFEQENTNPETDLYIRSVAFSPDGKYLVTGAEDRQIRMWDIATGKVKHVFVGHEQDIYSLDYSRDGRYIVSGSGDHTARLWEAETGKCVLTLAIENGVTAVAFSPNNQFIAAGSLDQVIRVWSITGTLLKKLEGHRESVYSIAFSADGKYLASGSLDKTMRLWELKLDENAKTCSKASAISTYTGHSNFVLSVAISPNGKWAVSGSKDRSVQFWNLKTDELYLTFQGHKNSVISVCFSPDGKLFATGSGDLRARIWSIEDTA
chain 2: AAGEPDNNGKVYYSYGPTQEQSILPLPENKHEGLPPYQNEYVPNGIRANQVVYPGQLVAVGNDSSKQLSESTTSNTDNNGVATANQSNPLGMKFHLPPILPVGESVCLPPRTSAKPRIAEGIASLLNPEEPPSNSDKQPSMSNGPKSEVSPSQSQQAPLIQSSTSPVSLQFPPEVQGSNVDKRNYALNVLSQLRSQHDLMIQELHNLNQHIQQIDEWLRSSDNENMASEHIKSSTPAVVASGALQT

Variants of: B1
Assay: ITC; parent: -6.6; read off a plot

dG	Variant
~-6.4 kcal/mol	chain 1 T167A
~-5.4 kcal/mol	chain 1 R84A
~-6.9 kcal/mol	chain 1 D124A
~-6.2 kcal/mol	chain 1 E100A
~-5.9 kcal/mol	chain 1 F257A
~-5.6 kcal/mol	chain 1 Y126A
~-6.8 kcal/mol	chain 1 L183S
~-5.6 kcal/mol	chain 1 Y208A
~-6 kcal/mol	chain 1 L224A
~-5.4 kcal/mol	chain 1 I301A
~-6.2 kcal/mol	chain 1 C37A
